Results from patent publication US9777309B2, “High throughput assay for monitoring AMP production and aminoacyl-tRNA synthetase activity” (Board of Supervisors of Louisiana State University and …, priority 2014, dated 2017).

Columns and labels:
Assay in all cases: purified protein, by the assay type
[1] = substrate: Nc1ncnc2c1ncn2[C@@H]1O[C@H](COP(=O)(O)O)[C@@H](O)[C@H]1O; type: biochemical, Saccharomyces cerevisiae; details: other: pH 7.2, 2 mM ATP, 3 μM IMP dehydrogenase, 25° C., standard error in parenthesis
Experimental: All kinetic assays were performed in 96 well microtiter plates at 25° C. using 200 μl of assay mix per well. Under these conditions, the path length is 0.56 cm. All assays were monitored by following the change in absorbance at 340 nm over 10 minutes using a Synergy 4 Hybrid Microplate Reader (BioTek, Winooski, Vt.).
Initial rates for each substrate concentration were determined from a linear fit of the data (A340 vs. time). Km and Vmax values were determined by fitting a plot of initial rate vs. substrate concentration to the Michaelis-Menten equation:
[formula] where vo is the initial rate of the reaction, [E] is the total enzyme concentration, and [S] is the substrate concentration. kcat values were calculated from the equation: Vmax=kcat[E] (2) where [E] is the molar concentration of the enzyme in the assay.

[2] = substrate: N[C@@H](Cc1ccc(O)cc1)C(=O)O; details: other: 10 mM MgATP, saturating tRNA^Tyr, 25° C., L-Tyr with cyclodityrosine synthase, D-Tyr with D-tyrosyl-tRNA deacylase, pH 7.78
Experimental: (§1) The pH of all stock solutions was adjusted to 7.0 prior to use. All kinetic assays were performed in 96 well microtiter plates at 25° C. using either 100 or 200 μl of assay mix per well. Under these conditions, the path lengths are 0.28 and 0.56 cm, respectively. The reaction rate for formation of the L-Tyr-tRNA^TYr product was determined by monitoring the increase in absorbance at 340 nm associated with the conversion of NAD^+ to NADH using a BioTek Synergy 4 plate reader (ε340=6220 M^−1 cm^−1).
(§2) Initial rates for each substrate concentration were determined from a linear fit of the data (A340 vs. time). Km and Vmax values were determined by fitting a plot of the initial rate vs. substrate concentration to the Michaelis-Menten equation, the same equations (1) and (2) above:
(§3) [formula] where vo is the initial rate of the reaction and [S] is the substrate concentration. kcat values were calculated from the equation: Vmax=kcat[E]

[3] = substrate: N[C@H](Cc1ccc(O)cc1)C(=O)O; details: other: 10 mM MgATP, saturating tRNA^Tyr, 25° C., L-Tyr with cyclodityrosine synthase, D-Tyr with D-tyrosyl-tRNA deacylase, pH 7.78
Experimental: as §1, §2, §3

Row | Protein | Km [1] | kcat [1] | Km [2] | Km [3]
1 | AMP deaminase (Saccharomyces cerevisiae S288C) (protein) MDNQATQRLNDLSLEPAPSHDEQDGSGLVIDIDQRKIGDEQAGVVVDDETPPLEQQDSHESLAADSRNANFSYHENQQLLENGTKQLALDEHDSHSAILEQPSHSTNCSSSNIAAMNKGHDSADHASQNSGGKPRTLSASAQHILPETLKSFAGAPVVNKQVRTSASYKMGMLADDASQQFLDDPSSELIDLYSKVAECRNLRAKYQTISVQNDDQNPKNKPGWVVYPPPPKPSYNSDTKTVVPVTNKPDAEVFDFTKCEIPGEDPDWEFTLNDDDSYVVHRSGKTDELIAQIPTLRDYYLDLEKMISISSDGPAKSFAYRRLQYLEARWNLYYLLNEYQETSVSKRNPHRDFYNVRKVDTHVHHSACMNQKHLLRFIKHKLRHSKDEKVIFRDGKLLTLDEVFRSLHLTGYDLSIDTLDMHAHKDTFHRFDKFNLKYNPIGESRLREIFLKTNNYIKGTYLADITKQVIFDLENSKYQNCEYRISVYGRSLDEWDKLASWVIDNKVISHNVRWLVQIPRLYDIYKKTGIVQSFQDICKNLFQPLFEVTKNPQSHPKLHVFLQRVIGFDSVDDESKVDRRFHRKYPKPSLWEAPQNPPYSYYLYYLYSNVASLNQWRAKRGFNTLVLRPHCGEAGDPEHLVSAYLLAHGISHGILLRKVPFVQYLYYLDQVGIAMSPLSNNALFLTYDKNPFPRYFKRGLNVSLSTDDPLQFSYTREPLIEEYSVAAQIYKLSNVDMCELARNSVLQSGWEAQIKKHWIGKDFDKSGVEGNDVVRTNVPDIRINYRYDTLSTELELVNHFANFKRTIEEK | 0.4 (±0.1) mM | 21 (±4) s^−1 | – | –
2 | G. stearothermophilus tyrosyl-tRNA synthetase (Geobacillus stearothermophilus) (protein) MDLLAELQWRGLVNQTTDEDGLRKLLNEERVTLYCGFDPTADSLHIGHLATILTMRRFQQAGHRPIALVGGATGLIGDPSGKKSERTLNAKETVEAWSARIKEQLGRFLDFEADGNPAKIKNNYDWIGPLDVITFLRDVGKHFSVNYMMAKESVQSRIETGISFTEFSYMMLQAYDFLRLYETEGCRLQIGGSDQWGNITAGLELIRKTKGEARAFGLTIPLVTKADGTKFGKTESGTIWLDKEKTSPYEFYQFWINTDDRDVIRYLKYFTFLSKEEIEALEQELREAPEKRAAQKTLAEEVTKLVHGEEALRQAIRISEALFSGDIANLTAAEIEQGFKDVPSFVHEGGDVPLVELLVSAGISPSKRQAREDIQNGAIYVNGERLQDVGAILTAEHRLEGRFTVIRRGKKKYYLIRYA | – | – | 24 (±3) μM | 23 (±6) μM
